Here are results for three substances from US20230065493A1.

The target of this experiment is CPTL derived from para rubber tree (Hevea brasiliensis) (Hevea brasiliensis).
With “cis-prenyltransferase (CPT) 7 derived from para rubber tree (Hevea brasiliensis) (enzyme)”, the Radioactivity (isoprene polymerization activity, 14C-IPP incorporation, proteoliposome) was 5040 dpm. For the substance “cis-prenyltransferase (CPT) 6 derived from para rubber tree (Hevea brasiliensis) (enzyme)”, the Radioactivity (isoprene polymerization activity, 14C-IPP incorporation, proteoliposome) amounted to 7660 dpm. Then “CPT1 derived from para rubber tree (Hevea brasiliensis) (enzyme)”, with 290 dpm.
